Measured values taken from the supplement of paper PMC10567573.

B1: TSN (parent)
chain: FLAAEQDIREEIRKVVQSLEQTAR
B2: PDS5B (parent)
chain: IYKKYALQSAAGKDAAKQIAWIKD

Variants of: B1
Assay: protein stability index of a GFP-peptide fusion (GPS, HEK-293T) (PSI 1-6); higher = more stable
Settings: c terminus: a fixed tail appended
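Further: lentivirally expressed fusions sorted by FACS into six bins by GFP to DsRed ratio, PSI derived from sequencing read proportions per bin multiplied by bin number.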

Protein stability index, by site and new letter:
Q21: T 1.92; K 1.78; M 1.68; G 2.08; F 1.81; Y 1.64; P 2.41; N 1.83; L 1.91; R 2.15; E 1.9; S 1.9; V 1.5; W 1.87; H 1.8; I 2.27
T22: R 2.99; Q 2.1; S 1.98; L 3.07; F 2.42; A 2.38; H 1.67; K 1.95; P 2.16; V 2.55; D 2.5; G 1.24; C 1.84; W 2.32; E 2.48; N 2.36; M 2.57; I 2.61; Y 1.81
A23: Y 1.88; Q 1.96; M 1.87; G 2.21; N 1.8; K 1.75; F 2.19; C 1.99; E 2.68; H 2.11; R 1.87; V 2.13; T 1.76; I 2.52; L 2.34; S 1.8; W 2.1; D 1.57; P 2.15
R24: D 2.4; C 1.82; L 2.49; E 2.13; T 2.08; M 2.68; H 1.47; N 2.21; G 2.18; Q 1.74; V 1.7; P 2.28; K 1.7; Y 1.94; A 2.26; W 1.69; F 2.07; S 2.16; I 3.12

Variants of: B2
Assay: as above
Settings: c terminus: a fixed tail appended

Protein stability index: each site, then its substitutions
I1: C 3.19; E 3.79; L 2.12; K 2.75; G 2.81; Y 2.1; P 2.77; N 2.41; Q 3.23; V 2.61; H 3.36; T 3.11; D 3.71
A20: E 2.66; W 2.68; G 2.25; V 2.08; F 1.95; R 1.84; I 2.31; H 2.07; D 3.39
Q18: W 2.18; G 2.45; L 1.99; C 1.75; S 2.58; I 2.4; V 2.07; P 2.37; M 2.38; F 2.33; D 2.83; K 2.6; Y 1.33
A11: V 2.29; G 2.65; Q 2.69; Y 1.8; P 2.27; R 1.75; W 1.82; F 1.75; D 3.03; T 2.15; K 2.5; L 1.8; E 2.43
K17: C 2.04; S 2.67; G 2.35; I 1.79; W 1.63; L 2.07; V 2.12; R 2.67; H 2.89; A 2.48
L7: I 1.95; M 2.32; P 2.92; W 1.69; N 2.81; T 2.63; K 2.55; V 2.32; E 2.76; R 2.3
A6: I 2.12; M 1.8; E 3.2; Q 2.85; V 1.82; S 2.49; N 2.18; C 1.85; D 2.32; L 1.86
A15: W 1.43; F 1.75; L 2.64; T 2.35; Y 1.45; V 1.71; R 2.09; C 1.89; P 2.56; D 2.35; G 2.9; N 2.5; M 1.83; S 2.73; Q 2.29; K 2.76
Q8: C 1.29; K 2.35; N 2.06; H 1.83; D 2.27; Y 1.69; V 2.17; T 1.84
A16: R 2.12; Q 2.35; G 2.92; Y 2.05; I 2.47; S 2.47; V 2.98; W 2.11; D 2.75; T 2.46
K3: L 2.4; V 1.75; T 2.15; C 1.51; D 3.43; R 2.56; P 2.65; E 2.88; H 2.36; W 2.95; Y 2.19; F 2.15
S9: M 2.44; K 1.87; L 1.76; Y 1.75; H 2.38; T 2.06; F 2; W 1.99; V 2.13; A 2.16; R 2.29; C 2; D 3.27; P 2.17; G 2.17
K4: S 2.23; L 1.75; I 2.44; W 1.35; M 1.95; A 2.13; D 3.24; P 2.71; V 1.55
I19: K 3.01; M 1.97; H 3.34; V 2.49; T 2.77; N 3.59; P 3.11; Y 1.99; F 2.29; D 3.79; L 1.81
D14: V 2.1; K 2.28; C 1.36; P 2.34; Q 2.15; H 1.86; T 1.94; F 2.07; G 2.24; W 2.1; L 1.68; A 1.9; Y 1.85
A10: W 1.77; Q 2.4; R 1.37; D 2.53; L 2.32; V 2.1; T 2.42; G 1.71; C 1.72; Y 1.75
Y2: F 1.67; E 3.9; Q 2.5; C 2.96; P 3.19; W 2.32; I 1.77; S 2.84; M 4.12
K23: P 2.36; T 2.18; I 2.64; Y 2.44; W 2.62; D 2.98; L 3.36
G12: K 1.75; D 3.13; L 1.84; A 1.86; T 1.71; C 1.6; E 2.34; P 2.74; W 2.63
I22: H 3.12; V 3.21; Y 2.52; C 2.75; M 2.14; K 3.21; E 4.49; W 2.28
D24: P 2.79; H 2.14; C 2.08; V 2.52; E 1.75; N 2.24; S 2.42; L 2.02; I 1.76; W 1.66; K 2.19; M 1.59; G 2.08; F 2.15
W21: G 2.92; E 2.91; F 2.31; N 3.83; T 3.55; D 3.05; R 2.74; K 2.65; Y 2.42; S 3.19
Y5: T 3.36; Q 2.99; K 2.93; D 3.79; W 1.98; N 2.93; G 2.82; F 1.92; I 2.26; M 1.91
K13: E 2.55; H 2.29; L 2.14; T 2.3; M 2.17; C 1.94; W 1.84; S 2.28; F 1.93; P 2.4; R 2.77; N 2.27
